Measurements reported in IntAct's records for PubMed 29892012.

B1: Ligand of Numb protein X 2 (Homo sapiens), Q8N448 (parent)
chain: MGTTSDEMVSVEQTSSSSLNPLCFECGQQHWTRENHLYNYQNEVDDDLVCHICLQPLLQPLDTPCGHTFCYKCLRNFLQEKDFCPLDRKRLHFKLCKKSSILVHKLLDKLLVLCPFSSVCKDVMQRCDLEAHLKNRCPGASHRRVALERRKTSRTQAEIENENGPTLLDPAGTLSPEADCLGTGAVPVERHLTSASLSTWSEEPGLDNPAFEESAGADTTQQPLSLPEGEITTIEIHRSNPYIQLGISIVGGNETPLINIVIQEVYRDGVIARDGRLLAGDQILQVNNYNISNVSHNYARAVLSQPCNTLHLTVLRERRFGNRAHNHSDSNSPREEIFQVALHKRDSGEQLGIKLVRRTDEPGVFILDLLEGGLAAQDGRLSSNDRVLAINGHDLKYGTPELAAQIIQASGERVNLTIARPGKPQPGNTIREAGNHSSSSQHHTPPPYYSRPSSHKDLTQCVTCQEKHITVKKEPHESLGMTVAGGRGSKSGELPIFVTSVPPHGCLARDGRIKRGDVLLNINGIDLTNLSHSEAVAMLKASAASPAVALKALEVQIVEEATQNAEEQPSTFSENEYDASWSPSWVMWLGLPSTLHSCHDIVLRRSYLGSWGFSIVGGYEENHTNQPFFIKTIVLGTPAYYDGRLKCGDMIVAVNGLSTVGMSHSALVPMLKEQRNKVTLTVICWPGSLV
partner: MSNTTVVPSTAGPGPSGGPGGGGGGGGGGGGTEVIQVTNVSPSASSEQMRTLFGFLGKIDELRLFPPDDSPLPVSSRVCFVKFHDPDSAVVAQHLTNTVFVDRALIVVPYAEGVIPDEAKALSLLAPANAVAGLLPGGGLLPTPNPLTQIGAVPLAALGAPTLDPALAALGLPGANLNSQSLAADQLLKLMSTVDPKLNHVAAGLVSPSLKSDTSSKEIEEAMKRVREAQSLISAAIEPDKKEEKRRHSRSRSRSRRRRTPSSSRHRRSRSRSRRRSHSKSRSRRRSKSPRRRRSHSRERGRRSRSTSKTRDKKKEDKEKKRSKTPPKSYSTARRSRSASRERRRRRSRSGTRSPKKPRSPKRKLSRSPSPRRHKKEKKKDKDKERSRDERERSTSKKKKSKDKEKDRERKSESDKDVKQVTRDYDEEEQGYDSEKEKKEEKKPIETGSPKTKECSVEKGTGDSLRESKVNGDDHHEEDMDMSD
B2: Ligand of Numb protein X 2 (Homo sapiens), Q8N448 (parent)
chain: B1 chain
partner: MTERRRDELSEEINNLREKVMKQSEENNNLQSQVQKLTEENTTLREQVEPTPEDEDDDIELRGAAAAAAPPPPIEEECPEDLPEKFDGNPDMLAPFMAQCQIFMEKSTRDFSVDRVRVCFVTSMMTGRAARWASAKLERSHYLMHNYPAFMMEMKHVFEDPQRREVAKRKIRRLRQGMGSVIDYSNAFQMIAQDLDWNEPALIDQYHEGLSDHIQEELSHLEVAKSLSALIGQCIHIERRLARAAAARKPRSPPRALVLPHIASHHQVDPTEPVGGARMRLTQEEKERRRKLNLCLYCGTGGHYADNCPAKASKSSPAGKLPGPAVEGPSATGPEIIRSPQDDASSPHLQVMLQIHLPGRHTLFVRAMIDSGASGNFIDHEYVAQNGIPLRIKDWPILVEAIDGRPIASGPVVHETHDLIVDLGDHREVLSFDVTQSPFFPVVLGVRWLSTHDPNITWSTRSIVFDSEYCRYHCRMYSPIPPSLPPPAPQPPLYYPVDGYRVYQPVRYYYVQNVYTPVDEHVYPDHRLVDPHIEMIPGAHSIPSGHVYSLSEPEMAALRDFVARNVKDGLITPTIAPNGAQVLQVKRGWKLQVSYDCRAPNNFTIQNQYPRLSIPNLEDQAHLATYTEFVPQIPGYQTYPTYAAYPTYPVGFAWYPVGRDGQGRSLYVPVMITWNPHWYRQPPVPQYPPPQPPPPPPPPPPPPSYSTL
B3: Ligand of Numb protein X 2 (Homo sapiens), Q8N448 (parent)
chain: B1 chain
partner: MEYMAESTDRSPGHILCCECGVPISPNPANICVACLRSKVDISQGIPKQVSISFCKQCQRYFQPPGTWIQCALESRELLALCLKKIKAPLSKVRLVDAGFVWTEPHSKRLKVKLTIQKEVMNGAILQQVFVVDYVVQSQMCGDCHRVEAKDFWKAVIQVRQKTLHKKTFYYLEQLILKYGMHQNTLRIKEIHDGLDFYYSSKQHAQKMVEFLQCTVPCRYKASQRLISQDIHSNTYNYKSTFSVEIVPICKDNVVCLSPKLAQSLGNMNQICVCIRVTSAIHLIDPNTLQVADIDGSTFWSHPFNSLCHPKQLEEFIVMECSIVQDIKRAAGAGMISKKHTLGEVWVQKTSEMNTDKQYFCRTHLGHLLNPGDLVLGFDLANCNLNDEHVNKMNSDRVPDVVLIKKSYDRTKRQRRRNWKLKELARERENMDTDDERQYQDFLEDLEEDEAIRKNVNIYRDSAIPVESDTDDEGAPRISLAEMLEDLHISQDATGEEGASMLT
B4: Ligand of Numb protein X 2 (Homo sapiens), Q8N448 (parent)
chain: B1 chain
partner: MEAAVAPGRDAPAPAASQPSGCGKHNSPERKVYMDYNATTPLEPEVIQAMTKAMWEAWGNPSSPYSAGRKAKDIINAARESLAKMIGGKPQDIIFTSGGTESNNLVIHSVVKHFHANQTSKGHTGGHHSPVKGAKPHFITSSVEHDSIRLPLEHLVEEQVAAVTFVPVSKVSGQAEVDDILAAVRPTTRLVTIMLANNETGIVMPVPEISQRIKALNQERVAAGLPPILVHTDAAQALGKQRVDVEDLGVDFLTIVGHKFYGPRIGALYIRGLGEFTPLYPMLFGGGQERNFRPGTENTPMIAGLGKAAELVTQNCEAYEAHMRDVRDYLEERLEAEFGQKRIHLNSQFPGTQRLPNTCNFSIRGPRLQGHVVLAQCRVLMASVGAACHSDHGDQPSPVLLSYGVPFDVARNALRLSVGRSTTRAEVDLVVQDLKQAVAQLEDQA
B5: Ligand of Numb protein X 2 (Homo sapiens), Q8N448 (parent)
chain: B1 chain
partner: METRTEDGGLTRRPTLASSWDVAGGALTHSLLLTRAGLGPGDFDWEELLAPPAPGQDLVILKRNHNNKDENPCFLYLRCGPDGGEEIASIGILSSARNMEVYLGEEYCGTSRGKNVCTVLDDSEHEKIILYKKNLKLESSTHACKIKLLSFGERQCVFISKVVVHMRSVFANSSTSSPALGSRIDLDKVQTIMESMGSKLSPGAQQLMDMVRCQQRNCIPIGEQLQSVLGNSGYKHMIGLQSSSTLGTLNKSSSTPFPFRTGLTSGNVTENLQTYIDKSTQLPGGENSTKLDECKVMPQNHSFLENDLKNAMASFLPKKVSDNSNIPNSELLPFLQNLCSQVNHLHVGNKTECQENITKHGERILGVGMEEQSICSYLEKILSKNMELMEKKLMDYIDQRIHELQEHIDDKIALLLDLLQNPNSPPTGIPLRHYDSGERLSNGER
B6: Ena/VASP-like protein (Homo sapiens), Q9UI08 (parent)
chain: MSEQSICQARASVMVYDDTSKKWVPIKPGQQGFSRINIYHNTASNTFRVVGVKLQDQQVVINYSIVKGLKYNQATPTFHQWRDARQVYGLNFASKEEATTFSNAMLFALNIMNSQEGGPSSQRQVQNGPSPDEMDIQRRQVMEQHQQQRQESLERRTSATGPILPPGHPSSAASAPVSCSGPPPPPPPPVPPPPTGATPPPPPPLPAGGAQGSSHDESSMSGLAAAIAGAKLRRVQRPEDASGGSSPSGTSKSDANRASSGGGGGGLMEEMNKLLAKRRKAASQSDKPAEKKEDESQMEDPSTSPSPGTRAASQPPNSSEAGRKPWERSNSVEKPVSSILSRTPSVAKSPEAKSPLQSQPHSRMKPAGSVNDMALDAFDLDRMKQEILEEVVRELHKVKEEIIDAIRQELSGISTT
partner: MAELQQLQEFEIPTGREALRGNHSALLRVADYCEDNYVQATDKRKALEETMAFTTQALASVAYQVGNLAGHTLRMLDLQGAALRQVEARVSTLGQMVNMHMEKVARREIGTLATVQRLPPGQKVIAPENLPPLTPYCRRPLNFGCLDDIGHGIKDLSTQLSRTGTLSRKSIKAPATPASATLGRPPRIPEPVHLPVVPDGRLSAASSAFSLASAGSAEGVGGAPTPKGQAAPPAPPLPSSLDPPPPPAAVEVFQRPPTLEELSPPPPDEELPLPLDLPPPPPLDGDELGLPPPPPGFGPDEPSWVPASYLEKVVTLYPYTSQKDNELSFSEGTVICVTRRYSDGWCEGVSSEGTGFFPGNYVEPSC

Variants of: B1
Settings: with srs11_human SRSF11, Q05519

Variant	effect of a mutation on the interaction
P669A	with no effect

Variants of: B2
Settings: with peg10_human PEG10, Q86TG7

Variant	effect of a mutation on the interaction
P669A	with no effect

Variants of: B3
Settings: with nmd3_human NMD3, Q96D46

Variant	effect of a mutation on the interaction
P669A	with no effect

Variants of: B4
Settings: with scly_human SCLY

Variant	effect of a mutation on the interaction
P669A	with no effect

Variants of: B5
Settings: with paat_human PAAT

Variant	effect of a mutation on the interaction
P669A	with no effect

Variants of: B6
Settings: with abi3_human ABI3, Q9P2A4

Variant	effect of a mutation on the interaction
R10Q	with no effect
